Experimental findings from publication PMC6720452, “Structural Basis for Recruitment of DAPK1 to the KLHL20 E3 Ligase” (Structure(London, England:1993), 2019) are described below.

The target in the test is T1, KLHL20 Kelch domain (human, UniProt Q9Y2M5 303-605).
T1 construct: Kelch domain of human KLHL20, Uniprot Q9Y2M5 isoform 1, M303-E605; structure traced from residues 317 to 601; Used for SPR (amine-coupled) and crystallisation; also called untagged KLHL20 Kelch; source: E. coli BL21(DE3)R3-pRARE2, purified (nickel sepharose, size exclusion, anion exchange)
T1 sequence (looked up): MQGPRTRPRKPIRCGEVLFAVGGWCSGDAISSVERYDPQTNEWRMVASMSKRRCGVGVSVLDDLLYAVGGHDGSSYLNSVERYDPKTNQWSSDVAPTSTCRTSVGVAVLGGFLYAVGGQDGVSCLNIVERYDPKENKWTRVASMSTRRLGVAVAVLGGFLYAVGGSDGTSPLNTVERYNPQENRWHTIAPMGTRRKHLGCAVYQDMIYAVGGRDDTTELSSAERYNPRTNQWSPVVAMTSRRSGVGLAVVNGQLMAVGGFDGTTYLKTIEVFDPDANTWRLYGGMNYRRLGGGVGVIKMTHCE
Kind of test: crystal structure; KLHL20 Kelch domain 12 mg/mL with 3 mM DAPK1 peptide; sitting drop, 2 M sodium chloride, 0.1 M acetate pH 4.5, 20°C; 1.1 Å. The following applies: both partners purified.

B1: 11-residue DAPK1 peptide (crystallization peptide) (peptide)
peptide: LGLPDLVAKYN
notes: also called LT1342; source: synthetic peptide, bought: LifeTein
Regarding B1, the binding result is “binds”.
